According to the Immune Epitope Database (IEDB):
Each block holds one sequence with its values, some of them ahead of it.

Legend:
HLA-B*08:01 [1] = test: IEDB peptide-MHC binding, purified MHC/direct/fluorescence; filed as Kd, often an IC50 or EC50 that approximates it; ≥ and ≤ were set here for values at or beyond the usual limits of such assays; details: source organism: Vibrio vulnificus CMCP6
HLA-B*08:02 = test: as above; details: source organism: Vibrio vulnificus CMCP6
HLA-A*69:01 = test: as above
HLA-B*58:01 = test: as above
HLA-A*01:01 = test: as above
HLA-B*40:01 = test: as above
HLA-C*12:03 = test: as above
HLA-A*26:02 = test: as above; details: source organism: Vibrio vulnificus CMCP6
HLA-B*48:01 = test: as above
HLA-A*31:01 = test: as above
HLA-A*26:03 = test: as above; details: source organism: Vibrio vulnificus CMCP6
HLA-B*46:01 = test: as above
HLA-B*27:05 = test: as above
HLA-B*15:09 = test: as above; details: source organism: Vibrio vulnificus CMCP6
HLA-B*38:01 = test: as above
HLA-B*57:01 [2] = test: IEDB peptide-MHC binding, purified MHC/competitive/fluorescence; filed as Kd, often an IC50 or EC50 that approximates it; ≥ and ≤ were set here for values at or beyond the usual limits of such assays; details: source organism: Vibrio vulnificus CMCP6
HLA-A*11:01 [3] = test: as above; details: source organism: Vibrio vulnificus CMCP6
HLA-A*02:03 = test: as above; details: source organism: Vibrio vulnificus CMCP6
HLA-B*15:01 [4] = test: as above
HLA-A*02:01 [5] = test: as above; details: source organism: Vibrio vulnificus CMCP6
HLA-B*15:17 [6] = test: as above; details: source organism: Vibrio vulnificus CMCP6
HLA-A*02:06 = test: as above; details: source organism: Vibrio vulnificus CMCP6
HLA-B*51:01 = test: IEDB peptide-MHC binding, purified MHC/direct/fluorescence; filed as Kd, often an IC50 or EC50 that approximates it; ≥ and ≤ were set here for values at or beyond the usual limits of such assays; details: source organism: Vibrio cholerae
HLA-A*26:01 = test: as above; details: source organism: Vibrio cholerae V52
HLA-B*57:01 [7] = test: as above; details: source organism: Vibrio cholerae
HLA-B*07:02 = test: as above; details: source organism: Vibrio cholerae
HLA-A*03:01 = test: as above; details: source organism: Vibrio cholerae
HLA-A*11:01 [8] = test: as above; details: source organism: Vibrio cholerae
HLA-B*15:01 [9] = test: as above; details: source organism: Vibrio cholerae
HLA-A*02:01 [10] = test: as above; details: source organism: Vibrio cholerae
HLA-B*15:17 [11] = test: as above; details: source organism: Vibrio cholerae
HLA-B*18:01 = test: as above; details: source organism: Vibrio cholerae
HLA-B*39:01 = test: as above; details: source organism: Vibrio cholerae V52
HLA-B*08:01 [12] = test: IEDB peptide-MHC binding, purified MHC/competitive/fluorescence; filed as Kd, often an IC50 or EC50 that approximates it; ≥ and ≤ were set here for values at or beyond the usual limits of such assays; details: source organism: Vibrio cholerae V52
HLA-A*30:01 = test: as above; details: source organism: Vibrio cholerae V52
HLA-A*02:01 [13] = test: IEDB peptide-MHC binding, cellular MHC/competitive/fluorescence; ≥ and ≤ were set here for values at or beyond the usual limits of such assays; details: source organism: Homo sapiens
HLA-B*45:06 = test: IEDB peptide-MHC binding, purified MHC/competitive/fluorescence; filed as Kd, often an IC50 or EC50 that approximates it; ≥ and ≤ were set here for values at or beyond the usual limits of such assays; details: source organism: Gorilla gorilla
HLA-B*15:42 = test: as above; details: source organism: Gorilla gorilla
HLA-C*14:02 = test: as above; details: source organism: Gorilla gorilla
HLA-B*83:01 = test: as above; details: source organism: Gorilla gorilla
HLA-B*35:01 = test: as above
[14] = source organism: Vibrio vulnificus
[15] = source organism: Vibrio vulnificus CMCP6
[16] = source organism: Vibrio cholerae
[17] = source organism: Bacillus anthracis str. A0488
[18] = source organism: Desulfitobacterium hafniense DCB-2

Sequence: VTFFCVMTY
Kd (HLA-B*08:01 [1]): ≥ 20 µM
Kd (HLA-B*08:02): ≥ 20 µM
Kd (HLA-A*69:01; [14]): ≥ 20 µM
Kd (HLA-B*58:01; [15]): 0.111 µM
Kd (HLA-A*01:01; [14]): 0.993 µM
Kd (HLA-B*40:01; [14]): ≥ 20 µM
Kd (HLA-C*12:03; [15]): 0.043 µM
Kd (HLA-A*26:02): 1.78 µM
Kd (HLA-B*48:01; [14]): ≥ 20 µM
Kd (HLA-A*31:01; [14]): ≥ 20 µM
Kd (HLA-A*26:03): ≥ 20 µM
Kd (HLA-B*46:01; [14]): ≥ 20 µM
Kd (HLA-B*27:05; [14]): ≥ 20 µM
Kd (HLA-B*15:09): ≥ 20 µM
Kd (HLA-B*38:01; [15]): ≥ 20 µM
Kd (HLA-B*57:01 [2]): 1.75 µM
Kd (HLA-A*11:01 [3]): 0.225 µM
Kd (HLA-A*02:03): ≥ 20 µM
Kd (HLA-B*15:01 [4]; [15]): 2.23 µM
Kd (HLA-A*02:01 [5]): 2.1 µM
Kd (HLA-B*15:17 [6]): 0.0151 µM
Kd (HLA-A*02:06): 0.478 µM

Sequence: IVKQGRDAL
Kd (HLA-A*69:01; [16]): ≥ 20 µM
Kd (HLA-B*58:01; [16]): ≥ 20 µM
Kd (HLA-B*51:01): ≥ 20 µM
Kd (HLA-A*01:01; [16]): ≥ 20 µM
Kd (HLA-A*26:01): ≥ 20 µM
Kd (HLA-B*57:01 [7]): ≥ 20 µM
Kd (HLA-B*40:01; [16]): ≥ 20 µM
Kd (HLA-B*07:02): 0.226 µM
Kd (HLA-B*48:01; [16]): ≥ 20 µM
Kd (HLA-A*31:01; [16]): ≥ 20 µM
Kd (HLA-A*03:01): ≥ 20 µM
Kd (HLA-B*46:01; [16]): ≥ 20 µM
Kd (HLA-A*11:01 [8]): ≥ 20 µM
Kd (HLA-B*27:05; [16]): ≥ 20 µM
Kd (HLA-B*15:01 [9]): 1.34 µM
Kd (HLA-A*02:01 [10]): ≥ 20 µM
Kd (HLA-B*15:17 [11]): ≥ 20 µM
Kd (HLA-B*18:01): ≥ 20 µM
Kd (HLA-B*39:01): ≥ 20 µM
Kd (HLA-B*38:01; source organism: Vibrio cholerae V52): ≥ 20 µM
Kd (HLA-B*08:01 [12]): 1.46 µM
Kd (HLA-A*30:01): ≥ 20 µM

IC50 (HLA-A*02:01 [13]): 10.5 µM
Kd (HLA-C*12:03; source organism: Gorilla gorilla): 2.28 µM
Kd (HLA-B*45:06): ≥ 5 µM
Kd (HLA-B*15:42): ≥ 5 µM
Kd (HLA-C*14:02): 0.0772 µM
Kd (HLA-B*83:01): ≥ 5 µM
Sequence: VMAPRTLVL

Sequence: WCMQHLPSY
Kd (HLA-B*35:01; [17]): 0.004 µM
Kd (HLA-B*15:01 [4]; [17]): 0.102 µM

IC50 (HLA-A*02:01 [13]): 21 µM
Sequence: SLSEKTVLL

Kd (HLA-B*35:01; [18]): 0.0071 µM
Kd (HLA-B*15:01 [4]; [18]): 0.806 µM
Sequence: FAGDLYRMY
